Measured values published in the supplement of paper PMC9170038.

System: K4 kissing-loop RNA reporter
Assay: apparent KD of K4 kissing-loop reporter; higher = weaker reporter binding
Conditions: Eterna round: R107; input ligand: none
Method: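 RNA-MaP round R107: designed RNA switches with theophylline, tryptophan, arginine or FMN aptamers are transcribed on-chip within common flanks. They are titrated with a labelled K4 kissing-loop RNA reporter in RNA-MaP buffer (100 mM Tris pH 7.5, 80 mM KCl, 4 mM MgCl2), without ligand or with the indicated ligand. Median apparent KD per design.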
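Further: bound reporter read as fluorescence of individual clusters on recovered sequencing chips by microscopy, with normalized cluster intensities fitted with a binding model.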

Row | Sequence | apparent KD of K4 kissing-loop reporter
1 | UUGAGCCUGACGUAAGUCAGGCUCUGCGAGCGAGGACCGGUACGGCCGCCACUCGGUGCAGUGAUGUUGCAUGGCCGCAAGGCCG [#2 Exclusion - Tryptophan A Attempt #15 (HarryS)] | 363 nM
2 | AGGCACGAGCAAGGAUAUCGAGUAGAGUGAUGUUCUGCCUGGGUUGGCUCGAAAGAGCCUUCUCAGCGAGAAGGUGCUCGUGCCU [#2 Same State - FMN A Attempt #21 (HarryS)] | 982 nM
3 | GCUAUGGUAGGAAGGAGCGCUUACUCGGUAAUAAGAGUGAUGUUCGAUACCGAGUAUUUAUAGCAGGUAGGUCGCCUACUAUAGC [Arginine B K4 5] | 195 nM
4 | AUUAUAUAGGCGGCCGCCACUAGUGAUGUUAGUGACUAUAUGAAAACAUAUAGAAUAAAAUAAUAUAGGACCGGGCCAUAAUAUU [AstrosExTryB#4] | 423 nM
5 | AAGGGCUAGGCGGCCGCCACUGGUCGUGUACACAUACAAACCAGUGAUGUUGGUAUUGUAUGCGACAGGACCGGGCCUAGCCGAA [Exclusion - Tryptophan B (Freestyle 28)] | 323 nM
6 | CACUUACGUAGUGAUGUUACGAUCUCUGAUACCAGACAACUCUAAGUCCCUUGGCAGCAGUCAUUUUGCUUUUAAUUUACUCAAA [JR_ExcTheophyA_Sub014] | 682 nM
7 | UAGUUGCCGGUUUGUAGGCUUCGGCAGUGGGAGGAUAUGUUGACCGACAGAAGGCCCAGUGAUGUUGGGCGAUUGGCGGUGAGAU [Antebear] | 145 nM
8 | UAGUCCUAGUGAUCCUUAUCAAGUGGUGGGCGAGGACCGGUACGGCCGCCACUCGACUAUGCAGUGAUGUUGCAAUCCGGACAAU [Exclusion - Tryptophan A (Freestyle 13)] | 194 nM
9 | AGAGUUAUGCGAGGAUAUGCAGUUAGUACUCAAAGAGUACUAACGCAGAGUGAUGUUCUGUGAAAAGCAGAAGGUGCAUAACUCA [Omei KL FMN B SS B v6] | 693 nM
10 | GCGCGUCAUGUCAGCGGUGACUUUGUCGAUACCAGCGCCGCAAGGCGCCCUUGGCAGCGACGCGCUGGAGUGAUGUUCCAGCGUG [#2 Exclusion - Theophylline A Attempt #12 (HarryS)] | 134 nM
11 | CGCAGUGAUGUUGCUAUUAUUCUUGGUUAACGAGGACCGGUACGGCCGCCACUCGAUUUCUAUCUAAUCCAGUGUUUUUUUGAGU [JR_ExcTryptoA_Sub003] | 396 nM
12 | CACAAUUAAUUACAGUGAUGUUGUAAUCUGCGAGGACCGGUACGGCCGCCACUCGGGCUUGUAGGGCGCCCACAUUCUUAUACUA [theeternabot_sameState_KL_Trp_A_29] | 426 nM
13 | AGGGUUAAUUAGUCUUUUUUCACAUUAAGUCAGGAUAUCGUAUUUUCGAGAAGGGACACAUGCUAGUGAUGUUAGCUAUUUCCCA [#02 K4 FMN A Exclusion] | 90.6 nM
14 | GCCGUACGCAUGGAUACCAGACUACCAUUGGAAACAAUGUGUCCGGUAGUGAUGUUACCUGUCCCUUGGCAGCCAUGCGUACGGC | 702 nM
15 | CACUUACGUAGUGAUGUUACGAUCUCUGAUACCAGACAACUCUAAGUCCCUUGGCAGCAGUCAUUUUGCUUCAAAUUUACUCAAA [JR_ExcTheophyA_Sub013] | 706 nM
16 | AAUACUAUCAGAAGGAGCGUGGAAUAUUCAUCUGUAUCUAAUACGAGUGAUGUUCGUAAUUCACAGGUAGGUCGCUGAUCAAUAA [whbob_Ex_Arginine_B_2th156] | 267 nM
17 | CGCAGUGAUGUUGCGAAUAUAAUUACGGAAGGAGCGCGUGAAAACGCAGGUAGGUCGCCGUUUGGUAUGAUGGAAACAUCGUACC [Arginine A K4 10] | 147 nM
18 | UCCAAGGACGAACCGGUAUGAUCACCGGAUACCAGAGGCGAAAGCCUCCCUUGGCAGCCGAGUGUAGUGAUGUUACACUGGUUCU | 90.7 nM
19 | GGAUCCACCAGUGAUGUUGGAGAAAACUCCAAGGAUAUGACGAAAGUCAGAAGGUGGUAGACUGGGCAAAGUCCGGUCGGAUCCA [FmnA10 G66] | 144 nM
20 | AAGCGUAAAAUGGCGGACAUACUGCUCCCACGAGGACCGGUACGGCCGCCACUCGAAUGCGGCAGUGAUGUUGCCGCCUUCGCGU [Zauslereed] | 62.8 nM
21 | AGUGUUGUAUGACGGUUUGUCACUUAGGAUCAGGAUAUAUAAACAAAUAGAAGGGAUGGCGGAGUGAUGUUCCGCCGGCCGCCAU [FMN A Exl V9] | 104 nM
22 | GCCGUAGAUCGAAGGAGCGUGUCCAAACCUCAUUCAUGUACACACGAGUGAUGUUCGUGUACACAGGUAGGUCGCGAUCUACGGC [#04 K4 Arginine B Exclusion] | 331 nM

Same assay, conditions: Eterna round: R107; input ligand: theophylline 20 uM

Row | Sequence | apparent KD of K4 kissing-loop reporter
23 | ACCAUCAAAGAUGGCCAGGACUCAACUGAUACCAGAGUGGAAACACUCCCUUGGCAGCAGGUGAGUGAUGUUCACGAGUCCUGGA [Omel KL Theo A SS B v8] | 522 nM
24 | AAGUGAUGUUGUAGUGAUGUUGUGAUGUUGCAGGAUAUAUAGUGAUGUAGAAGGGUAUGUGCAGUUUUCUUAUUUGAGUGUUGAU [zwzamullin] | 49.5 nM
25 | GUGCGGUGGAGGUUACCGCUAUUCUGAGAAGGAGCGCAGAUGACUGCAGGUAGGUCGCUUAGAGCUUGCAGUGAUGUUGCAAGUU [Berienza] | 166 nM
26 | AAGCAGUCACUCGACGCCAUCGAAGAUGGGCGAGGACCGGUACGGCCGCCACUCGGAGUGAUGUUCUGAAGACUGCAAAAUAAAA [MatMod 7 - Jieux - Exclusion - Tryptophan A] | 115 nM
27 | CGCGCGGGUUUGAGAGGGUUUGCGCGAAGUGAGGAUAUUUAGGGAGAAAGAAGGCACUAUAAAAUAUAGUGAUGUUAUAUAAGGG [SSFMNA.I] | 139 nM
28 | AAAAUAGAUCAGUGAUGUUGGUGUCUGGAUACCAGCGAUAAUAGUCGCCCUUGGCAGCCAUGGACGUACAAAAUAAGUACGUCCU [MatMod 20 - Jieux - Same State - Theophylline A] | 285 nM
29 | CGAGUGAUGUUCGUUCGUUUAUUUCGGUGACAGGAUAUGCGGAAACGCAGAAGGGUCACCUUUGGGUUACCGGAAUUAACGUUAU [Ex FMN A 30] | 414 nM
30 | UGACUGGACUGAAGGAGCGCUUAACUCCUAGUGAUGUUAGGAUAACGAGACAAAGUCUCGAAGCAGGUAGGUCGCAGUCUAGUCU | 126 nM
31 | AAUAAUAGUUGAGCAGGCGUGGUCUGAGAUACCAGUGAUUUCGAUCACCCUUGGCAGCUCAGCAUGAGUGAUGUUCAUGCUAUUC [Theo A Ex t10] | 145 nM
32 | AAUAAAAUCACGGCCGCCACUGAUUUCCAUAUUAGGAGUGAUGUUCCUAUGACUAUAUAAUUUAACAGGACCGGGUGAAUAUUUA [JR_ExcTryptoB_Sub012] | 111 nM
33 | GGCAUCCAUGGACCUAGUGAUGUUAGGUACCGAGGACCGGUACGGCCGCCACUCGGCCAUGGAUGCCGCAAUCGGAAACGAUUGC | 460 nM
34 | GGUAGCAUGGCGGCCGCCACUUCAAGUGGAGUGAUGUUCCACGGCAUCGCGAAAGCGAUGCCUGGAAGGACCGGGCCAUGCUACC | 761 nM
35 | AUCCGGAGUGCGGCCGCCACUAUCGGAUAGAGUGAUGUUCUAUCCGGCCUUAAAGGCGCGAACGAUAGGACCGGGCACUCUAAAU [Quatinti] | 128 nM
36 | GCCGUACGCAUGGAUACCAGUCAAGAUCAGUGAUGUUGAUCUUUUAUAGAGCCUACAUUUGACCCUUGGCAGCCAUGCGUACGGC | 465 nM
37 | AACUGUCAAGGACAACAUUACUGAGGUGAUACCAGCAUCGAAAGAUGCCCUUGGCAGCGCCAACUUGCAGUGAUGUUGCAAGUAA [BrourdMod 1 - Jieux - Exclusion - Theophylline A] | 159 nM
38 | UCGCAAAAGUCGGCCGCCACUCCGGGCCCUAUAAAUGGGCGCAGUGAUGUUGCGGCUAGGCCUCUGAGGACCGGGACUUUGUAGC [Tixelequ] | 142 nM

Row | Sequence | apparent KD of K4 kissing-loop reporter
39 | UGAUAGGACAGAAGGAGCGGAAGUGAUGUUUCCAAUGGAUAAAAGGUGUCAAAGACACCCUUCCAGGUAGGUCGCUGUCCUAUCU [ArgBX 17 #Palindromic #SwitchBubble #StaticStem] | 141 nM
40 | AAAUUUAAUAUAUUUAAUUAAUUAAGUGAUACCAGACAUUAAUAAGUCCCUUGGCAGCGCAAUGCAGUGAUGUUGCUUAUAAUAA [#18 K4 Theophylline A Same State] | 136 nM
41 | AAUAACUUGCAGUGAUGUUGCAAGAAAGCUCAGGAUAUCAGGAAACUGAGAAGGGAGCAUCCUGAGCAAACAUCACAACUUAGGA [[K1]-[K2]-[F1]-[F2]-[F]'-[K]'-[F]''_Design2] | 448 nM
42 | CUUAAGACAUGAGUGAUGUUCAUGUCCGAAGGAGCGUGCGAAAGCACAGGUAGGUCGCGGACGUGAGUGAUGUUCAUGUAAGCGA [KL-XArg-A11 #analogue] | 154 nM
43 | UUAGUCUAGAGAAGGAGCGAGUGAUGUUUGCUAAGAUCUAUGAUAUCAUAGAUCAAAUUUACUCAGGUAGGUCGCUCUAGACAUU [AK4 Exc Arginine B] | 165 nM
44 | UUGAGCCUGACGUAAGUCAGGCUCUGCGAGCGAGGACCGGUACGGCCGCCACUCGGUGCAGUGAUGUUGCAUGGCCGCAAGGCCG [#2 Exclusion - Tryptophan A Attempt #15 (HarryS)] | 259 nM
45 | AGGCACGAGCAAGGAUAUCGAGUAGAGUGAUGUUCUGCCUGGGUUGGCUCGAAAGAGCCUUCUCAGCGAGAAGGUGCUCGUGCCU [#2 Same State - FMN A Attempt #21 (HarryS)] | 638 nM
46 | GCUAUGGUAGGAAGGAGCGCUUACUCGGUAAUAAGAGUGAUGUUCGAUACCGAGUAUUUAUAGCAGGUAGGUCGCCUACUAUAGC [Arginine B K4 5] | 253 nM
47 | AUUAUAUAGGCGGCCGCCACUAGUGAUGUUAGUGACUAUAUGAAAACAUAUAGAAUAAAAUAAUAUAGGACCGGGCCAUAAUAUU [AstrosExTryB#4] | 425 nM
48 | AAGGGCUAGGCGGCCGCCACUGGUCGUGUACACAUACAAACCAGUGAUGUUGGUAUUGUAUGCGACAGGACCGGGCCUAGCCGAA [Exclusion - Tryptophan B (Freestyle 28)] | 258 nM
49 | CACUUACGUAGUGAUGUUACGAUCUCUGAUACCAGACAACUCUAAGUCCCUUGGCAGCAGUCAUUUUGCUUUUAAUUUACUCAAA [JR_ExcTheophyA_Sub014] | 578 nM
50 | UAGUCCUAGUGAUCCUUAUCAAGUGGUGGGCGAGGACCGGUACGGCCGCCACUCGACUAUGCAGUGAUGUUGCAAUCCGGACAAU [Exclusion - Tryptophan A (Freestyle 13)] | 243 nM
51 | AGAGUUAUGCGAGGAUAUGCAGUUAGUACUCAAAGAGUACUAACGCAGAGUGAUGUUCUGUGAAAAGCAGAAGGUGCAUAACUCA [Omei KL FMN B SS B v6] | 597 nM
52 | GCGCGUCAUGUCAGCGGUGACUUUGUCGAUACCAGCGCCGCAAGGCGCCCUUGGCAGCGACGCGCUGGAGUGAUGUUCCAGCGUG [#2 Exclusion - Theophylline A Attempt #12 (HarryS)] | 154 nM
53 | CGCAGUGAUGUUGCUAUUAUUCUUGGUUAACGAGGACCGGUACGGCCGCCACUCGAUUUCUAUCUAAUCCAGUGUUUUUUUGAGU [JR_ExcTryptoA_Sub003] | 458 nM
